Assay results: article PMC4187570, “Clathrin complexes with the inhibitor kappa B kinase signalosome: imaging the interactome” (Physiological Reports, 2014)

T1: IKKα (human (endogenous in A549), UniProt O15111 1-745)
T1 construct: also called CHUK; source: endogenous, A549 cells (M-PER lysate for the pull-down; fixed, permeabilised cells for FRET)
T1 sequence (looked up): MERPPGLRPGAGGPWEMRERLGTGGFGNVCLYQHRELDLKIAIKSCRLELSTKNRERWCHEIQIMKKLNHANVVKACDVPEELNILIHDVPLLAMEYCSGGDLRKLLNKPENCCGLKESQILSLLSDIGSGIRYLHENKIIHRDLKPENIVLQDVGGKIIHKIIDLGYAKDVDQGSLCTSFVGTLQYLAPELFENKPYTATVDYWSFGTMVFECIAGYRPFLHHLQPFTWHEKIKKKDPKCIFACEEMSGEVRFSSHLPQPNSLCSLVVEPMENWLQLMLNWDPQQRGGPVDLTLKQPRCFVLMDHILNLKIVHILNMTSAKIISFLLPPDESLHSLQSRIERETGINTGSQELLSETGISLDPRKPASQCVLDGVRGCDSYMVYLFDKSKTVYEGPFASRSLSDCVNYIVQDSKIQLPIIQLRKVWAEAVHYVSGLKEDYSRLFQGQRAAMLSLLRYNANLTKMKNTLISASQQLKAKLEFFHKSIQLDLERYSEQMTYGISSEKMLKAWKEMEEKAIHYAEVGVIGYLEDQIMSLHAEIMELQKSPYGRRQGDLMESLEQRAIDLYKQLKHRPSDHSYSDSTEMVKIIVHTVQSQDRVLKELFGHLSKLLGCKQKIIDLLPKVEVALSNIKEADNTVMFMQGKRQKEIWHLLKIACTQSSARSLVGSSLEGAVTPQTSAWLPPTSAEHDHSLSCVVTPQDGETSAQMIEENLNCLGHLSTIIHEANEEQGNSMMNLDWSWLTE

B1: IKKβ (natural protein, human (endogenous in A549), UniProt O14920 1-756, looked up)
chain: MSWSPSLTTQTCGAWEMKERLGTGGFGNVIRWHNQETGEQIAIKQCRQELSPRNRERWCLEIQIMRRLTHPNVVAARDVPEGMQNLAPNDLPLLAMEYCQGGDLRKYLNQFENCCGLREGAILTLLSDIASALRYLHENRIIHRDLKPENIVLQQGEQRLIHKIIDLGYAKELDQGSLCTSFVGTLQYLAPELLEQQKYTVTVDYWSFGTLAFECITGFRPFLPNWQPVQWHSKVRQKSEVDIVVSEDLNGTVKFSSSLPYPNNLNSVLAERLEKWLQLMLMWHPRQRGTDPTYGPNGCFKALDDILNLKLVHILNMVTGTIHTYPVTEDESLQSLKARIQQDTGIPEEDQELLQEAGLALIPDKPATQCISDGKLNEGHTLDMDLVFLFDNSKITYETQISPRPQPESVSCILQEPKRNLAFFQLRKVWGQVWHSIQTLKEDCNRLQQGQRAAMMNLLRNNSCLSKMKNSMASMSQQLKAKLDFFKTSIQIDLEKYSEQTEFGITSDKLLLAWREMEQAVELCGRENEVKLLVERMMALQTDIVDLQRSPMGRKQGGTLDDLEEQARELYRRLREKPRDQRTEGDSQEMVRLLLQAIQSFEKKVRVIYTQLSKTVVCKQKALELLPKVEEVVSLMNEDEKTVVRLQEKRQKELWNLLKIACSKVRGPVSGSPDSMNASRLSQPGQLMSQPSTASNSLPEPAKKSEELVAEAHNLCTLLENAIQDTVREQDQSFTALDWSWLQTEEEEHSCLEQAS
notes: also called IKBKB; source: endogenous, A549 cells (M-PER lysate for the pull-down; fixed, permeabilised cells for FRET)
B2: clathrin heavy chain 1 (natural protein, human (endogenous in A549), UniProt Q00610 1-1675, looked up)
chain: MAQILPIRFQEHLQLQNLGINPANIGFSTLTMESDKFICIREKVGEQAQVVIIDMNDPSNPIRRPISADSAIMNPASKVIALKAGKTLQIFNIEMKSKMKAHTMTDDVTFWKWISLNTVALVTDNAVYHWSMEGESQPVKMFDRHSSLAGCQIINYRTDAKQKWLLLTGISAQQNRVVGAMQLYSVDRKVSQPIEGHAASFAQFKMEGNAEESTLFCFAVRGQAGGKLHIIEVGTPPTGNQPFPKKAVDVFFPPEAQNDFPVAMQISEKHDVVFLITKYGYIHLYDLETGTCIYMNRISGETIFVTAPHEATAGIIGVNRKGQVLSVCVEEENIIPYITNVLQNPDLALRMAVRNNLAGAEELFARKFNALFAQGNYSEAAKVAANAPKGILRTPDTIRRFQSVPAQPGQTSPLLQYFGILLDQGQLNKYESLELCRPVLQQGRKQLLEKWLKEDKLECSEELGDLVKSVDPTLALSVYLRANVPNKVIQCFAETGQVQKIVLYAKKVGYTPDWIFLLRNVMRISPDQGQQFAQMLVQDEEPLADITQIVDVFMEYNLIQQCTAFLLDALKNNRPSEGPLQTRLLEMNLMHAPQVADAILGNQMFTHYDRAHIAQLCEKAGLLQRALEHFTDLYDIKRAVVHTHLLNPEWLVNYFGSLSVEDSLECLRAMLSANIRQNLQICVQVASKYHEQLSTQSLIELFESFKSFEGLFYFLGSIVNFSQDPDVHFKYIQAACKTGQIKEVERICRESNCYDPERVKNFLKEAKLTDQLPLIIVCDRFDFVHDLVLYLYRNNLQKYIEIYVQKVNPSRLPVVIGGLLDVDCSEDVIKNLILVVRGQFSTDELVAEVEKRNRLKLLLPWLEARIHEGCEEPATHNALAKIYIDSNNNPERFLRENPYYDSRVVGKYCEKRDPHLACVAYERGQCDLELINVCNENSLFKSLSRYLVRRKDPELWGSVLLESNPYRRPLIDQVVQTALSETQDPEEVSVTVKAFMTADLPNELIELLEKIVLDNSVFSEHRNLQNLLILTAIKADRTRVMEYINRLDNYDAPDIANIAISNELFEEAFAIFRKFDVNTSAVQVLIEHIGNLDRAYEFAERCNEPAVWSQLAKAQLQKGMVKEAIDSYIKADDPSSYMEVVQAANTSGNWEELVKYLQMARKKARESYVETELIFALAKTNRLAELEEFINGPNNAHIQQVGDRCYDEKMYDAAKLLYNNVSNFGRLASTLVHLGEYQAAVDGARKANSTRTWKEVCFACVDGKEFRLAQMCGLHIVVHADELEELINYYQDRGYFEELITMLEAALGLERAHMGMFTELAILYSKFKPQKMREHLELFWSRVNIPKVLRAAEQAHLWAELVFLYDKYEEYDNAIITMMNHPTDAWKEGQFKDIITKVANVELYYRAIQFYLEFKPLLLNDLLMVLSPRLDHTRAVNYFSKVKQLPLVKPYLRSVQNHNNKSVNESLNNLFITEEDYQALRTSIDAYDNFDNISLAQRLEKHELIEFRRIAAYLFKGNNRWKQSVELCKKDSLYKDAMQYASESKDTELAEELLQWFLQEEKRECFGACLFTCYDLLRPDVVLETAWRHNIMDFAMPYFIQVMKEYLTKVDKLDASESLRKEEEQATETQPIVYGQPQLMLTAGPSVAVPPQAPFGYGYTAPPYGQPQPGFGYSM
notes: clathrin heavy chain 1 (CLTC), human, SwissProt entry name CLH1_HUMAN; also called CHC; CLH1; source: endogenous, A549 cells (M-PER lysate for the pull-down; fixed, permeabilised cells for FRET)

What was measured:
Test in all cases: FRET or BRET; corrected FRET between fluorophore-labelled secondary antibodies (Alexa 488:Cy3, Cy3:Cy5) on primary antibodies, indirect immunofluorescence of acetone/methanol-fixed resting A549 cells, deconvolved Z-stacks; epitopes within about 30 nm; FRETN = cFRET normalised to the acceptor's emission, mean of four sets of experiments
[1] = biological target: IKKβ (human (endogenous in A549)) (UniProt O14920)
[2] = biological target: IKKα (human (endogenous in A549)) (UniProt O15111)
IKKα = biological target: T1, IKKα; details: partners not purified
IKKβ = biological target: B1; details: partners not purified

Row | Molecule | normalized FRET (FRETN) [1] | normalized FRET (FRETN) [2] | normalized FRET (FRETN) (IKKα) | normalized FRET (FRETN) (IKKβ)
1 | heat-shock protein-90 (from UniProt P07900 1-732) (natural protein) | 0.632 | 0.3 |  | 
2 | B1 |  |  | 0.362 | 
3 | B2 |  |  | 0.7 | 0.522
